We go through seven variants from IntAct's records for PubMed 29892012.

To fix the notation:
B1: Genetic suppressor element 1 (Homo sapiens), Q14687 (parent)
chain: MKGMSHEPKSPSLGMLSTATRTTATVNPLTPSPLNGALVPSGSPATSSALSAQAAPSSSFAAALRKLAKQAEEPRGSSLSSESSPVSSPATNHSSPASTPKRVPMGPIIVPPGGHSVPSTPPVVTIAPTKTVNGVWRSESRQDAGSRSSSGGRERLIVEPPLPQEKAGGPAIPSHLLSTPYPFGLSPSSVVQDSRFPPLNLQRPVHHVVPPSTVTEDYLRSFRPYHTTDDLRMSSLPPLGLDPATAAAYYHPSYLAPHPFPHPAFRMDDSYCLSALRSPFYPIPTPGSLPPLHPSAMHLHLSGVRYPPELSHSSLAALHSERMSGLSAERLQMDEELRREREREREREREREADREREKEREREREKEREQEKEREREKERERELERQREQRAREKELLAAKALEPSFLPVAELHGLRGHATEERGKPSEQLTPTRAEKLKDAGLQAPKPVQHPLHPVPTPHHTVPSLISNHGIFSLPSSSAATALLIQRTNEEEKWLARQRRLRQEKEDRQSQVSEFRQQVLEQHLDMGRPPVPAEAEHRPESTTRPGPNRHEPGGRDPPQHFGGPPPLISPKPQLHAAPTALWNPVSLMDNTLETRRAESHSLHSHPAAFEPSRQAAVPLVKVERVFCPEKAEEGPRKREPAPLDKYQPPPPPPREGGSLEHQPFLPGPGPFLAELEKSTQTILGQQRASLPQAATFGELSGPLKPGSPYRPPVPRAPDPAYIYDEFLQQRRRLVSKLDLEERRRREAQEKGYYYDLDDSYDESDEEEVRAHLRCVAEQPPLKLDTSSEKLEFLQLFGLTTQQQKEELVAQKRRKRRRMLRERSPSPPTIQSKRQTPSPRLALSTRYSPDEMNNSPNFEEKKKFLTIFNLTHISAEKRKDKERLVEMLRAMKQKALSAAVADSLTNSPRDSPAVSLSEPATQQASLDVEKPVGVAASLSDIPKAAEPGKLEQVRPQELSRVQELAPASGEKARLSEAPGGKKSLSMLHYIRGAAPKDIPVPLSHSTNGKSKPWEPFVAEEFAHQFHESVLQSTQKALQKHKGSVAVLSAEQNHKVDTSVHYNIPELQSSSRAPPPQHNGQQEPPTARKGPPTQELDRDSEEEEEEDDEDGEDEEEVPKRKWQGIEAVFEAYQEHIEEQNLERQVLQTQCRRLEARHYSLSLTAEQLSHSVAELRSQKQKMVSERERLQAELDHLRKCLALPAMHWPRGYLKGYPR
partner: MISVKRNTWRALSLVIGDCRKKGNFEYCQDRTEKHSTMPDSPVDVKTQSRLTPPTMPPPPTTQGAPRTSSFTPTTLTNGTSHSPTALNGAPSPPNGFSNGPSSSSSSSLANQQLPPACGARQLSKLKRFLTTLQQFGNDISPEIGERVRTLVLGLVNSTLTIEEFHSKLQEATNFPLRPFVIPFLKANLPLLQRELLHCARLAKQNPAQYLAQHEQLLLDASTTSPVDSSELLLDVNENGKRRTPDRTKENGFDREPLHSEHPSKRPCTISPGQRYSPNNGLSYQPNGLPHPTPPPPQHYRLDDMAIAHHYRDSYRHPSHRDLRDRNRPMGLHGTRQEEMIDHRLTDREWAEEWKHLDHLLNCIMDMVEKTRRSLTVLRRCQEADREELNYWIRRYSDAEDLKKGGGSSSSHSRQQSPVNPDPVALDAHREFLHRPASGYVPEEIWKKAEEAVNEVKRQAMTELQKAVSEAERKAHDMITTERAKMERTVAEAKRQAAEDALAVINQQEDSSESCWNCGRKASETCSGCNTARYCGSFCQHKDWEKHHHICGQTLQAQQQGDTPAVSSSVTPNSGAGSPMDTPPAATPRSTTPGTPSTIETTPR
B2: Protein VAC14 homolog (Homo sapiens), Q08AM6 (parent)
chain: MNPEKDFAPLTPNIVRALNDKLYEKRKVAALEIEKLVREFVAQNNTVQIKHVIQTLSQEFALSQHPHSRKGGLIGLAACSIALGKDSGLYLKELIEPVLTCFNDADSRLRYYACEALYNIVKVARGAVLPHFNVLFDGLSKLAADPDPNVKSGSELLDRLLKDIVTESNKFDLVSFIPLLRERIYSNNQYARQFIISWILVLESVPDINLLDYLPEILDGLFQILGDNGKEIRKMCEVVLGEFLKEIKKNPSSVKFAEMANILVIHCQTTDDLIQLTAMCWMREFIQLAGRVMLPYSSGILTAVLPCLAYDDRKKSIKEVANVCNQSLMKLVTPEDDELDELRPGQRQAEPTPDDALPKQEGTASGGPDGSCDSSFSSGISVFTAASTERAPVTLHLDGIVQVLNCHLSDTAIGMMTRIAVLKWLYHLYIKTPRKMFRHTDSLFPILLQTLSDESDEVILKDLEVLAEIASSPAGQTDDPGPLDGPDLQASHSELQVPTPGRAGLLNTSGTKGLECSPSTPTMNSYFYKFMINLLKRFSSERKLLEVRGPFIIRQLCLLLNAENIFHSMADILLREEDLKFASTMVHALNTILLTSTELFQLRNQLKDLKTLESQNLFCCLYRSWCHNPVTTVSLCFLTQNYRHAYDLIQKFGDLEVTVDFLAEVDKLVQLIECPIFTYLRLQLLDVKNNPYLIKALYGLLMLLPQSSAFQLLSHRLQCVPNPELLQTEDSLKAAPKSQKADSPSIDYAELLQHFEKVQNKHLEVRHQRSGRGDHLDRRVVL
partner: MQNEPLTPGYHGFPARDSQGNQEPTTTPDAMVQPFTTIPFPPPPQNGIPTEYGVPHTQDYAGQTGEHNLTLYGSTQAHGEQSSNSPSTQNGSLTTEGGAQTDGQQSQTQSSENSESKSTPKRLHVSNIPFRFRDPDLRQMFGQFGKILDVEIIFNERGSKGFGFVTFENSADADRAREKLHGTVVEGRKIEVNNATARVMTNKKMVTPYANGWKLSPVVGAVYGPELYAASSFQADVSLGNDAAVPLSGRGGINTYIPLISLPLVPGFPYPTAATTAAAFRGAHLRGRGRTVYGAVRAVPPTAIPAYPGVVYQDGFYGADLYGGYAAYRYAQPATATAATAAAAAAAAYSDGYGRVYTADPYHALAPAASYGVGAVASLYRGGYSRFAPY
B3: Protein VAC14 homolog (Homo sapiens), Q08AM6 (parent)
chain: B2 chain
partner: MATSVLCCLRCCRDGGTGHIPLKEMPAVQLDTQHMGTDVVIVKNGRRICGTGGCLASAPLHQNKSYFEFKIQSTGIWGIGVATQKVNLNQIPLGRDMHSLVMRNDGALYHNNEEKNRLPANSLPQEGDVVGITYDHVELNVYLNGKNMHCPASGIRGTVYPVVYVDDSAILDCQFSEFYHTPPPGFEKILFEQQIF
B4: Protein VAC14 homolog (Homo sapiens), Q08AM6 (parent)
chain: B2 chain
partner: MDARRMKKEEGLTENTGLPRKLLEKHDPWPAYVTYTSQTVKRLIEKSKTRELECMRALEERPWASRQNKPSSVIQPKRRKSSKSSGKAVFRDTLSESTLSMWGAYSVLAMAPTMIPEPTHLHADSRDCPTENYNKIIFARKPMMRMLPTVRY
B5: Retinoic acid receptor alpha (Homo sapiens), P10276 (parent)
chain: MASNSSSCPTPGGGHLNGYPVPPYAFFFPPMLGGLSPPGALTTLQHQLPVSGYSTPSPATIETQSSSSEEIVPSPPSPPPLPRIYKPCFVCQDKSSGYHYGVSACEGCKGFFRRSIQKNMVYTCHRDKNCIINKVTRNRCQYCRLQKCFEVGMSKESVRNDRNKKKKEVPKPECSESYTLTPEVGELIEKVRKAHQETFPALCQLGKYTTNNSSEQRVSLDIDLWDKFSELSTKCIIKTVEFAKQLPGFTTLTIADQITLLKAACLDILILRICTRYTPEQDTMTFSDGLTLNRTQMHNAGFGPLTDLVFAFANQLLPLEMDDAETGLLSAICLICGDRQDLEQPDRVDMLQEPLLEALKVYVRKRRPSRPHMFPKMLMKITDLRSISAKGAERVITLKMEIPGSMPPLIQEMLENSEGLDTLSGQPGGGGRDGGGLAPPPGSCSPSLSPSSNRSSPATHSP
partner: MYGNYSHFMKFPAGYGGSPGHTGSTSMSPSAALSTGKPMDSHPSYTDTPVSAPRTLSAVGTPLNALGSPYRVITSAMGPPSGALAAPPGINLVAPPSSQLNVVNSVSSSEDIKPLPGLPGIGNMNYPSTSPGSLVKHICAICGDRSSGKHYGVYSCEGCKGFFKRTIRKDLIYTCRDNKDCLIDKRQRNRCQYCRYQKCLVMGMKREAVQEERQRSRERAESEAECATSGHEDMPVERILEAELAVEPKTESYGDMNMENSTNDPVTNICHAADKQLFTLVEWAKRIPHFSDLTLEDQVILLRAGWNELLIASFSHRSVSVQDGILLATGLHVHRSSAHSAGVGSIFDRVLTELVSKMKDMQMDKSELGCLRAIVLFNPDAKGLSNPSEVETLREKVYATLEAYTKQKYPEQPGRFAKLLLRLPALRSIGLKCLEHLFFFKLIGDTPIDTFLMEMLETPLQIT

Variants of B1 are the subject of the first test. As to conditions: with mtg8_human RUNX1T1, Q06455.
With R503Q, the “effect of a mutation on the interaction” value is on record as “with no effect”.

Another test covers variants of B1. The settings on record: with mtg8_human RUNX1T1, Q06455. This is another data set of the same source.
In the case of E368K, the “effect of a mutation on the interaction” value is reported as “with no effect”.

The variants in a further test derive from B2. As to conditions: with rfox2_human RBFOX2, O43251.
As to A127S, the “effect of a mutation on the interaction” value was “with no effect”.

Variants of B3 are the subject of the next test. The settings on record: with spry7_human SPRYD7, Q5W111.
A127S: the “effect of a mutation on the interaction” value is reported as “with no effect”.

Variants of B4 are the subject of another test. As to conditions: with cdrt4_human CDRT4, Q8N9R6.
On to A127S, for which the “effect of a mutation on the interaction” value was “with no effect”.

The variants in a further test derive from B5. The settings on record: with rxrg_human RXRG.
Take MASNSSSCPTPGGGHLNGYPVPPYAFFFPPMLGGLSPPGALTTLQHQLPVSGYSTPSPATIETQSSSSEEIVPSPPSPPPLPRIYKPCFVCQDKSSGYHYGVSACEGCKGFFRRSIQKNMVYTCHRDKNCIINKVTRNRCQYCRLQKCFEVGMSKESVRNDRNKKKKEVPKPECSESYTLTPEVGELIEKVRKAHQETFPALCQLGKYTTNNSSEQRVSLDIDLWDKFSELSTKCIIKTVEFAKQLPGFTTLTIADQITLLKAACLDILILRICTRYTPEQDTMTFSDGLTLNRTQMHNAGFGPLTDLVFAFANQLLPLEMDDAETGLLSAICLICGDRQDLEQPDRVDMLQEPLLEALKVYVRKRRPSRPHMFLKMLMKITDLRSISAKGAERVITLKMEIPGSMPPLIQEMLENSEGLDTLSGQPGGGGRDGGGLAPPPGSCSPSLSPSSNRSSPATHSP [P375L]: the “effect of a mutation on the interaction” value is reported as “disrupting interaction strength”.

Variants of B5 are the subject of a further test. As to conditions: with rxrg_human RXRG. This is another data set of the same source.
In the case of MASNSSSCPTPGGGHLNGYPVPPYAFFFPPMLGGLSPPGALTTLQHQLPVSGYSTPSPATIETQSSSSEEIVPSPPSPPPLPHIYKPCFVCQDKSSGYHYGVSACEGCKGFFRRSIQKNMVYTCHRDKNCIINKVTRNRCQYCRLQKCFEVGMSKESVRNDRNKKKKEVPKPECSESYTLTPEVGELIEKVRKAHQETFPALCQLGKYTTNNSSEQRVSLDIDLWDKFSELSTKCIIKTVEFAKQLPGFTTLTIADQITLLKAACLDILILRICTRYTPEQDTMTFSDGLTLNRTQMHNAGFGPLTDLVFAFANQLLPLEMDDAETGLLSAICLICGDRQDLEQPDRVDMLQEPLLEALKVYVRKRRPSRPHMFPKMLMKITDLRSISAKGAERVITLKMEIPGSMPPLIQEMLENSEGLDTLSGQPGGGGRDGGGLAPPPGSCSPSLSPSSNRSSPATHSP [R83H], the “effect of a mutation on the interaction” value is recorded as “with no effect”.
